One substance from publication PMC4670963 can be followed below.

For test [1], the target named is Flag-tagged Sufu (UniProt Q9UMX1). The test is described as follows: co-IP; As a2 but with co-expressed exogenous HA-Hck or kinase-inactive Hck-K269E; immunoprecipitated with anti-Flag; western blot with anti-HA, anti-Flag or 4G10. Background: In western blotting, separated proteins are transferred to a membrane and probed.
Test [2] shares this target. Put plainly: co-IP; NIH3T3 cells transfected with HA-Gli1 or HA-Gli2 and Flag-Sufu, without exogenous Hck; immunoprecipitated with anti-Flag; western blot with anti-HA or anti-Flag; bands quantified with ImageJ against the input.

Chain of UniProt Q9UMX1 (Q9UMX1 whole entry): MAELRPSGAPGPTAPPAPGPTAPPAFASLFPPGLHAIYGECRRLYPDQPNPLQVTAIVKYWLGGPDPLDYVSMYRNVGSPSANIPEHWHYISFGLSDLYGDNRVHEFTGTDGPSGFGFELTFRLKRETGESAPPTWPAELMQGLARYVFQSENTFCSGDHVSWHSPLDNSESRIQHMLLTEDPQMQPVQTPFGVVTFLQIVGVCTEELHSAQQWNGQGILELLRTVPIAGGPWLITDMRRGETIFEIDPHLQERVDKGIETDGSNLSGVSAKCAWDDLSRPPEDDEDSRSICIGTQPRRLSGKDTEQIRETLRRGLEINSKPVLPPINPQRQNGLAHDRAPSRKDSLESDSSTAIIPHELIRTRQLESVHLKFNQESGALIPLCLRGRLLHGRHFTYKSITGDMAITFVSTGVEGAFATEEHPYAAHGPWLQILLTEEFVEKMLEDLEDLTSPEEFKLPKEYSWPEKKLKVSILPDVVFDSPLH

As for “HA-Gli1 (from UniProt P08151 1-1106) (natural protein)”, the percent of Gli1 co-precipitated with Sufu (against the input), with co-expressed HA-Hck with Flag-tagged Sufu [1] is 5%. In the test with Flag-tagged Sufu [2], this substance gave a percent of Gli1 co-immunoprecipitated with Sufu (against the input) of 30%.
